Data reported in patent US20160272683A1 (Novo Nordisk, published 2016).
Numbered stars: 1 amine (or outer) side, 2 acyl side, 3 side chain; on linkers, the order of the positions; unused ones are H or OH. * marks the point of attachment. C20 diacid = O=C(O)CCCCCCCCCCCCCCCCCCC(=O)*; C18 diacid = O=C(O)CCCCCCCCCCCCCCCCC(=O)*; γGlu = O=C(O)[C@H](CCC(=O)[*:2])N[*:1]

T1: human amylin 3(a) receptor (human calcitonin receptor co-expressed with RAMP-3) on BHK570/CRE-luc cells (human, UniProt P30988 25-474; O60896 24-148)
T1 sequence (looked up) 1: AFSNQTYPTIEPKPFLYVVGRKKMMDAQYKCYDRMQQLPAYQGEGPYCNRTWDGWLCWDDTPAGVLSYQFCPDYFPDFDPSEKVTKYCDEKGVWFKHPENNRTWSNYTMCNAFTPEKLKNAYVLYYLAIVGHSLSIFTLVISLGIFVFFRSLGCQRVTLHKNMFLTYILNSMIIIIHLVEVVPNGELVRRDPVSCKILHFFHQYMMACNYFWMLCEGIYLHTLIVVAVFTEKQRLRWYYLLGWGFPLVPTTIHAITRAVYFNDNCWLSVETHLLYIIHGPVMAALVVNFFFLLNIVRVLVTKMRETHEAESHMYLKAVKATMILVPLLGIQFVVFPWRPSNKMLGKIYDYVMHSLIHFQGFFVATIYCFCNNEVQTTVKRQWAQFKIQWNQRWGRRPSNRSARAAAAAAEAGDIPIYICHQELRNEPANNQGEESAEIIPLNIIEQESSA
T1 sequence (looked up) 2: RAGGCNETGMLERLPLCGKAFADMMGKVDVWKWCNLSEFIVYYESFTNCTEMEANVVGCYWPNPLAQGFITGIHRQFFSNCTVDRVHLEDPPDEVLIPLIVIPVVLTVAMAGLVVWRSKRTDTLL

T2: human calcitonin receptor on BHK570/CRE-luc cells (human, UniProt P30988 25-474)
T2 sequence (looked up): T1 sequence (looked up) 1

B1: [N-terminal(C20 diacid-gGlu), des1, 23Y, 30S, 31G]mimylin (peptide)
peptide: {C20 diacid-γGlu}-ASELSTAALGRLSAELHELATYPRTETGSGSP-NH2
SMILES: CC(C)C[C@H](NC(=O)[C@H](C)NC(=O)[C@H](C)NC(=O)[C@@H](NC(=O)[C@H](CO)NC(=O)[C@H](CC(C)C)NC(=O)[C@H](CCC(=O)O)NC(=O)[C@H](CO)NC(=O)[C@H](C)NC(=O)CC[C@H](NC(=O)CCCCCCCCCCCCCCCCCCC(=O)O)C(=O)O)[C@@H](C)O)C(=O)NCC(=O)N[C@@H](CCCNC(=N)N)C(=O)N[C@@H](CC(C)C)C(=O)N[C@@H](CO)C(=O)N[C@@H](C)C(=O)N[C@@H](CCC(=O)O)C(=O)N[C@@H](CC(C)C)C(=O)N[C@@H](Cc1c[nH]cn1)C(=O)N[C@@H](CCC(=O)O)C(=O)N[C@@H](CC(C)C)C(=O)N[C@@H](C)C(=O)N[C@H](C(=O)N[C@@H](Cc1ccc(O)cc1)C(=O)N1CCC[C@H]1C(=O)N[C@@H](CCCNC(=N)N)C(=O)N[C@H](C(=O)N[C@@H](CCC(=O)O)C(=O)N[C@H](C(=O)NCC(=O)N[C@@H](CO)C(=O)NCC(=O)N[C@@H](CO)C(=O)N1CCC[C@H]1C(N)=O)[C@@H](C)O)[C@@H](C)O)[C@@H](C)O
B2: [N-terminal(C20 diacid-gGlu), 1A, 23Y, 30S, 31G]mimylin (peptide)
peptide: {C20 diacid-γGlu}-AASELSTAALGRLSAELHELATYPRTETGSGSP-NH2
SMILES: CC(C)C[C@H](NC(=O)[C@H](C)NC(=O)[C@H](C)NC(=O)[C@@H](NC(=O)[C@H](CO)NC(=O)[C@H](CC(C)C)NC(=O)[C@H](CCC(=O)O)NC(=O)[C@H](CO)NC(=O)[C@H](C)NC(=O)[C@H](C)NC(=O)CC[C@H](NC(=O)CCCCCCCCCCCCCCCCCCC(=O)O)C(=O)O)[C@@H](C)O)C(=O)NCC(=O)N[C@@H](CCCNC(=N)N)C(=O)N[C@@H](CC(C)C)C(=O)N[C@@H](CO)C(=O)N[C@@H](C)C(=O)N[C@@H](CCC(=O)O)C(=O)N[C@@H](CC(C)C)C(=O)N[C@@H](Cc1c[nH]cn1)C(=O)N[C@@H](CCC(=O)O)C(=O)N[C@@H](CC(C)C)C(=O)N[C@@H](C)C(=O)N[C@H](C(=O)N[C@@H](Cc1ccc(O)cc1)C(=O)N1CCC[C@H]1C(=O)N[C@@H](CCCNC(=N)N)C(=O)N[C@H](C(=O)N[C@@H](CCC(=O)O)C(=O)N[C@H](C(=O)NCC(=O)N[C@@H](CO)C(=O)NCC(=O)N[C@@H](CO)C(=O)N1CCC[C@H]1C(N)=O)[C@@H](C)O)[C@@H](C)O)[C@@H](C)O
B3: [N-terminal(C18 diacid-gGlu), des1, 23Y, 30S, 31G]mimylin (peptide)
peptide: {C18 diacid-γGlu}-ASELSTAALGRLSAELHELATYPRTETGSGSP-NH2
SMILES: CC(C)C[C@H](NC(=O)[C@H](C)NC(=O)[C@H](C)NC(=O)[C@@H](NC(=O)[C@H](CO)NC(=O)[C@H](CC(C)C)NC(=O)[C@H](CCC(=O)O)NC(=O)[C@H](CO)NC(=O)[C@H](C)NC(=O)CC[C@H](NC(=O)CCCCCCCCCCCCCCCCC(=O)O)C(=O)O)[C@@H](C)O)C(=O)NCC(=O)N[C@@H](CCCNC(=N)N)C(=O)N[C@@H](CC(C)C)C(=O)N[C@@H](CO)C(=O)N[C@@H](C)C(=O)N[C@@H](CCC(=O)O)C(=O)N[C@@H](CC(C)C)C(=O)N[C@@H](Cc1c[nH]cn1)C(=O)N[C@@H](CCC(=O)O)C(=O)N[C@@H](CC(C)C)C(=O)N[C@@H](C)C(=O)N[C@H](C(=O)N[C@@H](Cc1ccc(O)cc1)C(=O)N1CCC[C@H]1C(=O)N[C@@H](CCCNC(=N)N)C(=O)N[C@H](C(=O)N[C@@H](CCC(=O)O)C(=O)N[C@H](C(=O)NCC(=O)N[C@@H](CO)C(=O)NCC(=O)N[C@@H](CO)C(=O)N1CCC[C@H]1C(N)=O)[C@@H](C)O)[C@@H](C)O)[C@@H](C)O

Molecular target: T1, human amylin 3(a) receptor (human …)
Experiment: cell-based or functional assay

hAmylin-R funct. EC50 (pM), tested with HSA [pM] | Binder
67 | B1
82 | B2
24 | B3

Molecular target: T2, human calcitonin receptor on …
Experiment: cell-based or functional assay

hCTR funct. EC50 (pM), tested with HSA [pM] | Binder
24 | B1
51 | B2
15 | B3
